Here are results for 78 sequences from the supplement of paper PMC7877785.

± gives the uncertainty stated by the source.

The data set is described as follows: self-splicing fitness, log relative to wild type (ln ratio); higher = more splicing; Tetrahymena group I intron in knt gene, E. coli kanamycin selection, DiMSum; sequences stand for … in CUCUCU…GGAGGGAAAAGUUAUCAGGCAUGCACCUGGUAGCUAGUCUUUAAACCAAUAGAUUGCAUCGGUUUAAAAGGCAAGACCGUCAAAUUGCGGGAAAGGGGUCAACAGCCGUUCAGUACCAAGUCUCAGGGGAAACUUUGAGAUGGCCUUGCAAAGGGUAUGGUAAUAAGCUGACGGACAUGGUCCUAACCACGCAGCCAAGUCCUAAGUCAACAGAUCUUCUGUUGAUAUGGAUGCAGUUCACAGACUAAAUGUCGGUCGGGGAAGAUGUAUUCUUCUCAUAAGAUAUAGUCGGACCUCUCCUUAAUGGGAGCUAGCGGAUGAAGUGAUGCAACACUGGAGCCGCUGGGAACUAAUUUGUAUGCGAAAGUAUAUUGAUUAGUUUUGGAGUACUCGUGGUCG
The procedure, abridged: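 A randomised library covering all eight P1ex-region intron nucleotides was built with the intron in the knt kanamycin-resistance gene on pET-22b(+) and held in E. coli BL21(DE3). Cells were grown overnight at 37°C or 30°C on LB agar, with or without 25 μg/mL kanamycin, plus 100 μg/mL carbenicillin, 50 μM IPTG and 0.2% rhamnose, and pooled colonies were amplicon-sequenced on an Illumina HiSeq 2500. DiMSum fitness is the error-weighted combination of wild-type-normalised replicate fold changes, kanamycin versus none.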

As to GGACAGCAAUAUUACGGGCU, the “self-splicing fitness (ln)” value by setting is: (30 °C) -1.89 ± 0.14; (37 °C) -0.458 ± 0.13.
Taken in the same sequence, the figures for GGACAGCAAUAUUACGGCCA were -0.721 ± 0.077 and -0.225 ± 0.1.
The matching figures for AUGAAGCAAUAUUACGGGGU: -2.79 ± 0.23 and -1.21 ± 0.17.
Consider UACCAGCAAUAUUACGUGGC, for which the “self-splicing fitness (ln)” value was -4.31 ± 0.22 (30 °C) and -3.66 ± 0.2 (37 °C).
The matching figures for GAGAAGCAAUAUUACGCCCA: -0.503 ± 0.2 and -0.351 ± 0.18.
Taken in the same sequence, the figures for GGUCAGCAAUAUUACGCGGU were -3.97 ± 0.39 and -2.26 ± 0.27.
The matching figures for UGACAGCAAUAUUACGGAAU: -4.15 ± 0.28 and -1.55 ± 0.17.
As to CGAUAGCAAUAUUACGGUAU, the “self-splicing fitness (ln)” value (30 °C) was -2.78 ± 0.14 and the “self-splicing fitness (ln)” value (37 °C) is -1.79 ± 0.17.
The matching figures for GGGGAGCAAUAUUACGUAAU: -4.07 ± 0.47 and -0.557 ± 0.19.
The matching figures for UGCUAGCAAUAUUACGUAAC: -3.31 ± 0.28 and -1.84 ± 0.29.
On to AGCGAGCAAUAUUACGACUA, for which the “self-splicing fitness (ln)” value runs as follows: (30 °C) -0.953 ± 0.37; (37 °C) -1.03 ± 0.31.
With AAUCAGCAAUAUUACGCUCU, the “self-splicing fitness (ln)” value by setting is: (30 °C) -0.00647 ± 0.077; (37 °C) 0.0812 ± 0.097.
The matching figures for GCCCAGCAAUAUUACGUCGU: -0.113 ± 0.066 and 0.0609 ± 0.072.
With UUGUAGCAAUAUUACGCCCA, the “self-splicing fitness (ln)” value runs as follows: (30 °C) 0.762 ± 0.34; (37 °C) -0.0943 ± 0.38.
On to CUAGAGCAAUAUUACGCACC, for which the “self-splicing fitness (ln)” value (30 °C) is -2.44 ± 0.41.
As for GCCCAGCAAUAUUACGGCGA, the “self-splicing fitness (ln)” value runs as follows: (30 °C) -0.6 ± 0.082; (37 °C) -0.337 ± 0.1.
CCUGAGCAAUAUUACGGACC: the “self-splicing fitness (ln)” value (37 °C) is -3.02 ± 0.43.
In the case of CGCCAGCAAUAUUACGUAAU, the “self-splicing fitness (ln)” value is, setting by setting: (30 °C) -2.67 ± 0.12; (37 °C) -1.71 ± 0.15.
In the case of CAACAGCAAUAUUACGGCCC, the “self-splicing fitness (ln)” value (37 °C) was -2.06 ± 0.33.
For the sequence UAUUAGCAAUAUUACGACUC, the “self-splicing fitness (ln)” value is, setting by setting: (30 °C) -2.24 ± 0.21; (37 °C) -1.08 ± 0.3.
Taken in the same sequence, the figures for GCUAAGCAAUAUUACGUAUU were -1.16 ± 0.079 and -1.02 ± 0.11.
Taken in the same sequence, the figures for GCCAAGCAAUAUUACGGUAC were -2.01 ± 0.13 and -0.941 ± 0.13.
The matching figures for CGACAGCAAUAUUACGACAG: -0.3 ± 0.069 and 0.0609 ± 0.084.
Take UCAUAGCAAUAUUACGCGCU: under “30 °C”, the “self-splicing fitness (ln)” value was -3.22 ± 0.42.
CUGUAGCAAUAUUACGCGAA: the “self-splicing fitness (ln)” value by setting is: (30 °C) -1.86 ± 0.35; (37 °C) -2.26 ± 0.45.
On to AGACAGCAAUAUUACGGCAG, for which the “self-splicing fitness (ln)” value by setting is: (30 °C) -3.3 ± 0.15; (37 °C) -1.09 ± 0.12.
Regarding UGACAGCAAUAUUACGUACG, the “self-splicing fitness (ln)” value is, setting by setting: (30 °C) -0.78 ± 0.071; (37 °C) -0.016 ± 0.083.
As to UUAUAGCAAUAUUACGAAAA, the “self-splicing fitness (ln)” value (30 °C) is -1.95 ± 0.39 and the “self-splicing fitness (ln)” value (37 °C) is -1.31 ± 0.28.
The matching figures for UAGUAGCAAUAUUACGUCCU: -2.53 ± 0.21 and -0.272 ± 0.15.
Regarding GAUAAGCAAUAUUACGCCGC, the “self-splicing fitness (ln)” value (37 °C) is -1.99 ± 0.41.
For UCCUAGCAAUAUUACGAGAC, the “self-splicing fitness (ln)” value was -2.09 ± 0.33 (30 °C) and -1.71 ± 0.4 (37 °C).
Taken in the same sequence, the figures for UAAAAGCAAUAUUACGUUAG were -1.37 ± 0.069 and -1.33 ± 0.088.
The matching figures for UUCCAGCAAUAUUACGACAG: -1.39 ± 0.17 and -0.449 ± 0.18.
Regarding AAUUAGCAAUAUUACGACCG, the “self-splicing fitness (ln)” value is -1.2 ± 0.13 (30 °C) and 0.0816 ± 0.21 (37 °C).
The matching figures for CACCAGCAAUAUUACGUUCG: -0.281 ± 0.049 and -0.196 ± 0.062.
For CCGCAGCAAUAUUACGUUUA, the “self-splicing fitness (ln)” value by setting is: (30 °C) -3.22 ± 0.18; (37 °C) -2.35 ± 0.14.
Taken in the same sequence, the figures for AAAAAGCAAUAUUACGUGAG were -0.91 ± 0.056 and -0.523 ± 0.092.
Consider GAUUAGCAAUAUUACGUUUC, for which the “self-splicing fitness (ln)” value (30 °C) is -3.69 ± 0.28 and the “self-splicing fitness (ln)” value (37 °C) is -1.89 ± 0.18.
CGAGAGCAAUAUUACGGGAC: the “self-splicing fitness (ln)” value reads like this: (30 °C) -3.92 ± 0.18; (37 °C) -1.87 ± 0.16.
The matching figures for UUAAAGCAAUAUUACGGCAU: -0.866 ± 0.11 and 0.331 ± 0.12.
The matching figures for CGAUAGCAAUAUUACGUCAA: -3.18 ± 0.18 and -2.08 ± 0.15.
The matching figures for GCCGAGCAAUAUUACGUAAA: -2.41 ± 0.14 and -1.36 ± 0.17.
Take ACUGAGCAAUAUUACGUUAA: the “self-splicing fitness (ln)” value (30 °C) was -4.3 ± 0.42 and the “self-splicing fitness (ln)” value (37 °C) was -2.15 ± 0.28.
For GACAAGCAAUAUUACGCAAA, the “self-splicing fitness (ln)” value reads like this: (30 °C) -2.04 ± 0.13; (37 °C) -1.81 ± 0.12.
Taken in the same sequence, the figures for CAGUAGCAAUAUUACGGGAU were -4.35 ± 0.31 and -3.18 ± 0.16.
The matching figures for UACAAGCAAUAUUACGGAUA: -1.38 ± 0.086 and -0.839 ± 0.092.
The matching figures for CAAAAGCAAUAUUACGCGAC: -3.52 ± 0.34 and -4.08 ± 0.42.
On to CCGUAGCAAUAUUACGUACG, for which the “self-splicing fitness (ln)” value is, setting by setting: (30 °C) -2.13 ± 0.18; (37 °C) -1.83 ± 0.21.
Take CGCAAGCAAUAUUACGUCUG: the “self-splicing fitness (ln)” value is, setting by setting: (30 °C) -1.13 ± 0.06; (37 °C) -0.286 ± 0.075.
Taken in the same sequence, the figures for GUGCAGCAAUAUUACGUCAA were -1.6 ± 0.15 and -0.634 ± 0.12.
As to CCCUAGCAAUAUUACGCUAA, the “self-splicing fitness (ln)” value (30 °C) was -4.17 ± 0.3 and the “self-splicing fitness (ln)” value (37 °C) is -2.55 ± 0.22.
GUUGAGCAAUAUUACGUUAU: the “self-splicing fitness (ln)” value runs as follows: (30 °C) -3.37 ± 0.18; (37 °C) -0.445 ± 0.17.
Consider CUAAAGCAAUAUUACGGUGG, for which the “self-splicing fitness (ln)” value (30 °C) is -0.649 ± 0.064 and the “self-splicing fitness (ln)” value (37 °C) is -0.0443 ± 0.08.
The matching figures for GGUGAGCAAUAUUACGUAUU: -1.96 ± 0.31 and -1.94 ± 0.47.
Consider UCGGAGCAAUAUUACGGGAA, for which, under “37 °C”, the “self-splicing fitness (ln)” value was -2.08 ± 0.4.
For CGUGAGCAAUAUUACGUUGA, the “self-splicing fitness (ln)” value runs as follows: (30 °C) -2.89 ± 0.3; (37 °C) -2.94 ± 0.43.
Taken in the same sequence, the figures for AAAUAGCAAUAUUACGACGA were -0.696 ± 0.099 and -0.228 ± 0.14.
Taken in the same sequence, the figures for AUCGAGCAAUAUUACGUAGC were -4.41 ± 0.42 and -1.79 ± 0.26.
With GCGAAGCAAUAUUACGUGAU, the “self-splicing fitness (ln)” value was -2.53 ± 0.092 (30 °C) and -0.973 ± 0.098 (37 °C).
The matching figures for CCGAAGCAAUAUUACGGCUU: -3.9 ± 0.29 and -3.29 ± 0.32.
Taken in the same sequence, the figures for GUCAAGCAAUAUUACGUUAG were -4.36 ± 0.24 and -3.3 ± 0.23.
The matching figures for GCUGAGCAAUAUUACGAUAC: -1.15 ± 0.35 and 0.491 ± 0.22.
For the sequence AGUGAGCAAUAUUACGGUUC, the “self-splicing fitness (ln)” value reads like this: (30 °C) -2.21 ± 0.26; (37 °C) -1.7 ± 0.38.
The matching figures for CGGAAGCAAUAUUACGGUGC: -3.17 ± 0.19 and -2.28 ± 0.19.
Turning to GAAAAGCAAUAUUACGCAUA, the “self-splicing fitness (ln)” value was -1.72 ± 0.093 (30 °C) and -0.672 ± 0.083 (37 °C).
With UUCUAGCAAUAUUACGGAGG, the “self-splicing fitness (ln)” value (30 °C) was -3.17 ± 0.34.
ACGCAGCAAUAUUACGGUGC: the “self-splicing fitness (ln)” value (30 °C) was -2.18 ± 0.15.
On to CAUAAGCAAUAUUACGUGGC, for which the “self-splicing fitness (ln)” value (37 °C) is -1.86 ± 0.25.
For UAAUAGCAAUAUUACGUGAC, the “self-splicing fitness (ln)” value runs as follows: (30 °C) -3.71 ± 0.22; (37 °C) -2.78 ± 0.22.
Taken in the same sequence, the figures for UUUGAGCAAUAUUACGACUA were -1.98 ± 0.27 and -1.32 ± 0.28.
With UGUUAGCAAUAUUACGACAU, the “self-splicing fitness (ln)” value was -2.59 ± 0.021 (30 °C) and -1.28 ± 0.035 (37 °C).
On to UGACAGCAAUAUUACGUCGC, for which the “self-splicing fitness (ln)” value (37 °C) was -1.64 ± 0.45.
With UUCAAGCAAUAUUACGCACC, where the note is “37 °C”, the “self-splicing fitness (ln)” value was -1.68 ± 0.49.
For CGGCAGCAAUAUUACGAGCG, the “self-splicing fitness (ln)” value (30 °C) was -0.946 ± 0.09 and the “self-splicing fitness (ln)” value (37 °C) was -0.441 ± 0.11.
Taken in the same sequence, the figures for AUACAGCAAUAUUACGUCUC were -2.98 ± 0.15 and -2.27 ± 0.14.
The matching figures for ACGUAGCAAUAUUACGUAGC: -3.34 ± 0.27 and -2.62 ± 0.35.
Taken in the same sequence, the figures for ACACAGCAAUAUUACGGGAG were -2.04 ± 0.073 and -2.15 ± 0.084.
Take GGAAAGCAAUAUUACGCACG: the “self-splicing fitness (ln)” value (30 °C) was -1.16 ± 0.19 and the “self-splicing fitness (ln)” value (37 °C) came out at 0.0479 ± 0.17.
